This is an account of results in US20220098265A1 (MEDIMMUNE LIMITED, priority 2012, published 2022).

As a reminder, the EC50 is the concentration needed to bring the measured effect to its halfway point.

The target in one assay is Human GlucR (Homo sapiens, UniProt P47871). As to conditions: read-out: hGlucR EC50; assay 1; additional peptides (Table 4).
Assay [1] concerns the target T1, human glucagon receptor (human, UniProt P47871 26-477). The experiment in a line: cell-based or functional assay.
Assay [2] concerns the target T2, human GLP-1 receptor (human, UniProt P43220 24-463). The experiment in a line: cell-based or functional assay.
Assay [3] addresses T3, human glucose-dependent insulinotropic peptide (gastric inhibitory polypeptide) receptor (human, UniProt P48546 22-466).
T3 sequence (looked up): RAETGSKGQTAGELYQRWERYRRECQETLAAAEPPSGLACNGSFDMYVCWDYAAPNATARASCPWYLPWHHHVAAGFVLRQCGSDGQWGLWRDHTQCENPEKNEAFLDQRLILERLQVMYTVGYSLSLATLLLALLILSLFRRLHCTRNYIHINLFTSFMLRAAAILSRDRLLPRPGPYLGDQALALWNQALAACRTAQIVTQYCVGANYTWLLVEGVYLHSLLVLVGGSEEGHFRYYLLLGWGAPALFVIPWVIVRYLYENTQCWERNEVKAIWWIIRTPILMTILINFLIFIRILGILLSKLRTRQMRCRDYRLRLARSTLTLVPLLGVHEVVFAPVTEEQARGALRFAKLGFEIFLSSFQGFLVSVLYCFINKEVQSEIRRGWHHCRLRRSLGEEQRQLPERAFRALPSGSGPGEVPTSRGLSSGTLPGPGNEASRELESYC
The experiment in a line: cell-based or functional assay.

The target in assay [4] is T1, human glucagon receptor. The experiment in a line: cell-based or functional assay. This is another data set of the same source.
The target in assay [5] is T2, human GLP-1 receptor. The experiment in a line: cell-based or functional assay. The source holds these as a separate data set.
In assay [6] the target is T3, human glucose-dependent insulinotropic …. The experiment in a line: cell-based or functional assay. This is another data set of the same source.
For assay [7] the target is unchanged. The experiment in a line: cell-based or functional assay. The source holds these as a separate data set.
Another assay deals with T4, mouse GLP-1 receptor (mouse, UniProt O35659 22-463).
T4 sequence (looked up): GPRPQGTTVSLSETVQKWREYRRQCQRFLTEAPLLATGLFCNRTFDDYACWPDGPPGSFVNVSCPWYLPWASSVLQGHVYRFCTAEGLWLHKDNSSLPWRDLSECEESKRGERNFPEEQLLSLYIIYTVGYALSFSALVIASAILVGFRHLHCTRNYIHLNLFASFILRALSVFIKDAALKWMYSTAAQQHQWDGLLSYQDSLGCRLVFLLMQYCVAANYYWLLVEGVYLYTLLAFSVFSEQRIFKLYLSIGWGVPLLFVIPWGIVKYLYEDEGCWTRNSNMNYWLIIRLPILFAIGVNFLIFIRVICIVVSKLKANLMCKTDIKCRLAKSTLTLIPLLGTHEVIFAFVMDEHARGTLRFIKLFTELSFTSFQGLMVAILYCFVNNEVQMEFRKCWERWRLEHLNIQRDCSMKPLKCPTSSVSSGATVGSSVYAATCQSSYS
The experiment in a line: cell-based or functional assay.

A further assay concerns the target human serum albumin (Homo sapiens, UniProt P02768). The experiment in a line: calculated from the variation in cAMP generation with the HSA concentration (assay 2).

Read-outs that look alike come from different tables or passages of the source. Numbered stars: 1 amine (or outer) side, 2 acyl side, 3 side chain; on linkers, the order of the positions; unused ones are H or OH. Side chains are listed from the residue outwards. Ends that are not written are not given here. Peptide text beside a SMILES is read from it. * marks the point of attachment. γGlu = O=C(O)[C@H](CCC(=O)[*:2])N[*:1]; Palmitoyl = CCCCCCCCCCCCCCCC(=O)*

T1 sequence (P47871 26-477): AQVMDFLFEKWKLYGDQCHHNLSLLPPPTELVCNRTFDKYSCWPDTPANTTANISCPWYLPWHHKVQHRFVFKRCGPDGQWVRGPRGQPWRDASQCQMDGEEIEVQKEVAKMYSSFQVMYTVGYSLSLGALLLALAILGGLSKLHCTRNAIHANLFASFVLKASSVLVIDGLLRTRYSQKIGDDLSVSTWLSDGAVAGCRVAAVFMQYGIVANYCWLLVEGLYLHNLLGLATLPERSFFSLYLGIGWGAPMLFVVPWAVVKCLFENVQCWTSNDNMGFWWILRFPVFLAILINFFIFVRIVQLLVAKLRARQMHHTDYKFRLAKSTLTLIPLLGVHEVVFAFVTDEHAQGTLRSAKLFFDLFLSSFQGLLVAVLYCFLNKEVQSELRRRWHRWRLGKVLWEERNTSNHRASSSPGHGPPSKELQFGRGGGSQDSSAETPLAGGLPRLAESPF
Human GlucR, sequence (P47871 26-477): as above
human serum albumin, sequence (P02768 25-609 limits assumed): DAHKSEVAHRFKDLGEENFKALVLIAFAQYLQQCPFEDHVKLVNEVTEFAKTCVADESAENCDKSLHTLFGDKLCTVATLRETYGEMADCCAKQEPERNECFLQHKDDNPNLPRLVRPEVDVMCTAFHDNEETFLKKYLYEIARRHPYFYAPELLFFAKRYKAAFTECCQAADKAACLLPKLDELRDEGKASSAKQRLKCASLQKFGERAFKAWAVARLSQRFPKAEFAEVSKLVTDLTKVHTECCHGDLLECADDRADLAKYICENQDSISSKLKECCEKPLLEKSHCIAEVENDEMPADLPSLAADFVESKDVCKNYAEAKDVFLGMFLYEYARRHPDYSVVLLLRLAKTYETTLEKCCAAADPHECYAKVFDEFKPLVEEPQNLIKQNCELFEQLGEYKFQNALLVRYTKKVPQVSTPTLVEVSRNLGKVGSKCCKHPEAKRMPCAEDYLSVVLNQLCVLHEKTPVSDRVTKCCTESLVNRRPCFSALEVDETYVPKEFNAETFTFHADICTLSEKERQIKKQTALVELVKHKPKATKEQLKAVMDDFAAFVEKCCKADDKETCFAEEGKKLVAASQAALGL
Experimental for Human GlucR: All sample dilutions were made in duplicate.
A frozen cryo-vial of cells expressing the receptor of interest was thawed rapidly in a water-bath, transferred to pre-warmed assay media and spun at 240×g for 5 minutes. Cells were re-suspended in assay media at an optimised concentration (e.g. hGCGR cells at 1×10^5 cells/ml, hGLP-1R and hGIPR cells at 0.5×10^5 cells/ml).
To this, 5 μL cell suspension was added and the plates incubated at room temperature for 30 minutes.
cAMP levels were measured using a commercially available cAMP dynamic 2 HTRF kit (Cisbio, Cat #62AM4PEJ), following the two step protocol as per manufacturer's recommendations. In brief; anti-cAMP cryptate (donor fluorophore) and cAMP-d2 (acceptor fluorophore) were made up separately by diluting each 1/20 in conjugate & lysis buffer provided in the kit. 5 μL anti-cAMP cryptate was added to all wells of the assay plate, and 5 μL cAMP-d2 added to all wells except non-specific binding (NSB) wells, to which conjugate and lysis buffer was added.

As to `CC(C)C[C@H](NC(=O)[C@H](Cc1ccc(O)cc1)NC(=O)[C@H](CCCCN)NC(=O)[C@H](CO)NC(=O)[C@H](Cc1ccc(O)cc1)NC(=O)[C@H](CC(=O)O)NC(=O)[C@H](CO)NC(=O)[C@@H](NC(=O)[C@H](Cc1ccccc1)NC(=O)[C@@H](NC(=O)CNC(=O)[C@H](CCC(N)=O)NC(=O)[C@H](CO)NC(=O)[C@@H](N)Cc1c[nH]cn1)[C@@H](C)O)[C@@H](C)O)C(=O)N[C@@H](CC(=O)O)C(=O)N[C@@H](CO)C(=O)N[C@@H](CCCNC(=N)N)C(=O)N[C@@H](CCCNC(=N)N)C(=O)N[C@@H](C)C(=O)N[C@@H](CCC(N)=O)C(=O)N[C@@H](CC(=O)O)C(=O)N[C@@H](Cc1ccccc1)C(=O)N[C@H](C(=O)N[C@@H](CCC(N)=O)C(=O)N[C@@H](Cc1c[nH]c2ccccc12)C(=O)N[C@@H](CC(C)C)C(=O)N[C@H](C(=O)N[C@@H](C)C(=O)NCC(=O)NCC(=O)N1CCC[C@H]1C(=O)N[C@@H](CO)C(=O)N[C@@H](CO)C(=O)NCC(=O)N[C@@H](C)C(=O)N1CCC[C@H]1C(=O)N1CCC[C@H]1C(=O)N1CCC[C@H]1C(=O)N[C@@H](CO)C(=O)N[C@@H](CCCCN)C(N)=O)C(C)C)C(C)C` [g319] (H-HSQGTFTSDYSKYLDSRRAQDFVQWLVAGGPSSGAPPPSK-NH2; N-terminus assumed), on Human GlucR, the EC50 is 0.0104 nM.
Same read-out and setting: the figure for `CCCCCCCCCCCCCCCC(=O)N[C@@H](CCC(=O)NCCCC[C@H](NC(=O)[C@H](CO)NC(=O)[C@H](CC(=O)O)NC(=O)[C@H](CC(C)C)NC(=O)[C@H](Cc1ccc(O)cc1)NC(=O)[C@H](CCCCN)NC(=O)[C@H](CO)NC(=O)[C@H](Cc1ccc(O)cc1)NC(=O)[C@H](CC(=O)O)NC(=O)[C@H](CO)NC(=O)[C@@H](NC(=O)[C@H](Cc1ccccc1)NC(=O)[C@@H](NC(=O)CNC(=O)[C@H](CCC(N)=O)NC(=O)CNC(=O)[C@@H](N)Cc1c[nH]cn1)[C@@H](C)O)[C@@H](C)O)C(=O)N[C@@H](CCCNC(=N)N)C(=O)N[C@@H](C)C(=O)N[C@@H](C)C(=O)N[C@@H](CC(=O)O)C(=O)N[C@@H](Cc1ccccc1)C(=O)N[C@H](C(=O)N[C@@H](C)C(=O)N[C@@H](Cc1c[nH]c2ccccc12)C(=O)N[C@@H](CC(C)C)C(=O)N[C@H](C(=O)N[C@@H](C)C(=O)NCC(=O)NCC(N)=O)C(C)C)C(C)C)C(=O)O` [g736] (H-HGQGTFTSDYSKYLDSK([γGlu-Palmitoyl])RAADFVAWLVAGG-NH2; N-terminus assumed) is 0.92 nM.
As for HSQGTFTSDK([γGlu-Palmitoyl])SKYLEGQAAKEFIAWLEKGR-OH [G934], the results for the “cAMP EC50 (assay 1)” value (in the assay with human glucagon receptor [1]; in the assay with human GLP-1 receptor [2]; in assay [3]) were 0.0063 nM, 0.018 nM and 3.6 nM, respectively.

B1: g327 (peptide)
peptide: HSQGTFTSDYSKYLDSRRAQDFVQWLVAGGGGGGK([γGlu-Palmitoyl])-NH2
modifications: N-terminus assumed
SMILES: CCCCCCCCCCCCCCCC(=O)N[C@@H](CCC(=O)NCCCC[C@H](NC(=O)CNC(=O)CNC(=O)CNC(=O)CNC(=O)CNC(=O)CNC(=O)[C@H](C)NC(=O)[C@@H](NC(=O)[C@H](CC(C)C)NC(=O)[C@H](Cc1c[nH]c2ccccc12)NC(=O)[C@H](CCC(N)=O)NC(=O)[C@@H](NC(=O)[C@H](Cc1ccccc1)NC(=O)[C@H](CC(=O)O)NC(=O)[C@H](CCC(N)=O)NC(=O)[C@H](C)NC(=O)[C@H](CCCNC(=N)N)NC(=O)[C@H](CCCNC(=N)N)NC(=O)[C@H](CO)NC(=O)[C@H](CC(=O)O)NC(=O)[C@H](CC(C)C)NC(=O)[C@H](Cc1ccc(O)cc1)NC(=O)[C@H](CCCCN)NC(=O)[C@H](CO)NC(=O)[C@H](Cc1ccc(O)cc1)NC(=O)[C@H](CC(=O)O)NC(=O)[C@H](CO)NC(=O)[C@@H](NC(=O)[C@H](Cc1ccccc1)NC(=O)[C@@H](NC(=O)CNC(=O)[C@H](CCC(N)=O)NC(=O)[C@H](CO)NC(=O)[C@@H](N)Cc1c[nH]cn1)[C@@H](C)O)[C@@H](C)O)C(C)C)C(C)C)C(N)=O)C(=O)O
With B1, the “cAMP EC50 (assay 1)” value with human glucagon receptor [4] is 0.00232 nM; in the assay with human GLP-1 receptor [5], 0.0193 nM; in assay [6] it was 12.8 nM.
Take HSQGTFTSDYSKK([γGlu-Palmitoyl])LDSERARDFVAWLVAGG-OH [G931]: the results for the “cAMP EC50 (assay 1)” value with human glucagon receptor [1] and in the assay with human GLP-1 receptor [2] were 0.0178 nM and 0.13 nM, respectively.
As for HSQGTFTSDYSKYLDSRRAQDFVQWLVAGGKNNRNNIAK-NH2 [g321], the “cAMP EC50 (assay 1)” value is 0.0279 nM with human glucagon receptor [4], 0.0272 nM in the assay with human GLP-1 receptor [5] and 6.41 nM in assay [6].
Regarding HSQGTFTSDKSSYLDSRRARDFVAWLEAGG (X10 = K(gE-palm); C-terminal amide) [G796], the “cAMP EC50 (assay 1)” value was 14 nM in [7] and 0.014 nM with human GLP-1 receptor [5]. In addition, the “cAMP EC50 (assay 2, 3.2% mouse serum albumin)” value with mouse GLP-1 receptor turned out to be 0.13 nM.
HSQGTFTSDKSRYLDSRSARDFVAWLEAGG (X10 = K(gE-palm); C-terminal amide) [G849]: the “cAMP EC50 (assay 1)” value in [7] was 17 nM; with human GLP-1 receptor [5], 0.00907 nM. For the same molecule, the free peptide at 4.4% HSA with human serum albumin was 0.48%.
On to HSQGTFTSDKSKYLEGQAAKEFIAWLEKGR (X10 = K(gE-palm); C-terminal amide) [G812], for which the “cAMP EC50 (assay 2, 3.2% mouse serum albumin)” value with mouse GLP-1 receptor turned out to be 0.13 nM.

B2: g326 (peptide)
peptide: HSQGTFTSDYSKYLDSRRAQDFVQWLVAGGGGGGK(Palmitoyl)-NH2
modifications: N-terminus assumed
SMILES: CCCCCCCCCCCCCCCC(=O)NCCCC[C@H](NC(=O)CNC(=O)CNC(=O)CNC(=O)CNC(=O)CNC(=O)CNC(=O)[C@H](C)NC(=O)[C@@H](NC(=O)[C@H](CC(C)C)NC(=O)[C@H](Cc1c[nH]c2ccccc12)NC(=O)[C@H](CCC(N)=O)NC(=O)[C@@H](NC(=O)[C@H](Cc1ccccc1)NC(=O)[C@H](CC(=O)O)NC(=O)[C@H](CCC(N)=O)NC(=O)[C@H](C)NC(=O)[C@H](CCCNC(=N)N)NC(=O)[C@H](CCCNC(=N)N)NC(=O)[C@H](CO)NC(=O)[C@H](CC(=O)O)NC(=O)[C@H](CC(C)C)NC(=O)[C@H](Cc1ccc(O)cc1)NC(=O)[C@H](CCCCN)NC(=O)[C@H](CO)NC(=O)[C@H](Cc1ccc(O)cc1)NC(=O)[C@H](CC(=O)O)NC(=O)[C@H](CO)NC(=O)[C@@H](NC(=O)[C@H](Cc1ccccc1)NC(=O)[C@@H](NC(=O)CNC(=O)[C@H](CCC(N)=O)NC(=O)[C@H](CO)NC(=O)[C@@H](N)Cc1c[nH]cn1)[C@@H](C)O)[C@@H](C)O)C(C)C)C(C)C)C(N)=O
Take B2: the results for the “cAMP EC50 (assay 1)” value (with human glucagon receptor [4]; with human GLP-1 receptor [5]; in assay [6]) were 0.00282 nM, 0.0247 nM and 12.6 nM, respectively.

B3: g322 (peptide)
peptide: HSQGTFTSDYSKYLDSRRAQDFVQWLVAGGKNNRNNIAK(Palmitoyl)-NH2
modifications: N-terminus assumed
SMILES: CCCCCCCCCCCCCCCC(=O)NCCCC[C@H](NC(=O)[C@H](C)NC(=O)[C@@H](NC(=O)[C@H](CC(N)=O)NC(=O)[C@H](CC(N)=O)NC(=O)[C@H](CCCNC(=N)N)NC(=O)[C@H](CC(N)=O)NC(=O)[C@H](CC(N)=O)NC(=O)[C@H](CCCCN)NC(=O)CNC(=O)CNC(=O)[C@H](C)NC(=O)[C@@H](NC(=O)[C@H](CC(C)C)NC(=O)[C@H](Cc1c[nH]c2ccccc12)NC(=O)[C@H](CCC(N)=O)NC(=O)[C@@H](NC(=O)[C@H](Cc1ccccc1)NC(=O)[C@H](CC(=O)O)NC(=O)[C@H](CCC(N)=O)NC(=O)[C@H](C)NC(=O)[C@H](CCCNC(=N)N)NC(=O)[C@H](CCCNC(=N)N)NC(=O)[C@H](CO)NC(=O)[C@H](CC(=O)O)NC(=O)[C@H](CC(C)C)NC(=O)[C@H](Cc1ccc(O)cc1)NC(=O)[C@H](CCCCN)NC(=O)[C@H](CO)NC(=O)[C@H](Cc1ccc(O)cc1)NC(=O)[C@H](CC(=O)O)NC(=O)[C@H](CO)NC(=O)[C@@H](NC(=O)[C@H](Cc1ccccc1)NC(=O)[C@@H](NC(=O)CNC(=O)[C@H](CCC(N)=O)NC(=O)[C@H](CO)NC(=O)[C@@H](N)Cc1c[nH]cn1)[C@@H](C)O)[C@@H](C)O)C(C)C)C(C)C)[C@@H](C)CC)C(N)=O
Regarding B3, the “cAMP EC50 (assay 1)” value is 0.00355 nM with human glucagon receptor [4], 0.0106 nM in the assay with human GLP-1 receptor [5] and 1.72 nM in assay [6].
